Data reported in patent US20240262922A1 (Merck KGaA, published 2024).
Like-named read-outs stand apart in the source and are kept apart here.

T1: recombinant human OX40L protein (R&D Systems, cat. #1054-OX) (human, UniProt P23510 51-183)
T1 sequence: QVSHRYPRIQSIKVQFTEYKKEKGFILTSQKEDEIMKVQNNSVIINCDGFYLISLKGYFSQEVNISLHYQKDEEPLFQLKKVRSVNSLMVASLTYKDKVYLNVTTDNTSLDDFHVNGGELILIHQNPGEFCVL

T2: AVI-GST-His6-hOX40L (human, UniProt P23510 51-183)
T2 sequence: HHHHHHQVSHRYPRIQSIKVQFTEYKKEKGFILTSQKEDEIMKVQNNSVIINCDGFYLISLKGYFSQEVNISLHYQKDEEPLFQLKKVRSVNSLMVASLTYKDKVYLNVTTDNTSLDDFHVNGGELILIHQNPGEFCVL

T3: mouse OX40L (mouse, UniProt P43488 51-198, limits assumed)
T3 sequence: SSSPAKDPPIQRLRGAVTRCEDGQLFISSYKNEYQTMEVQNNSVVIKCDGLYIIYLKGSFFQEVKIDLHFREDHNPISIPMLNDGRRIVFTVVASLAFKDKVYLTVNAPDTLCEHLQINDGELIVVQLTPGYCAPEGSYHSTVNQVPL

T4: recombinant cynomolgus monkey OX40L (Novoprotein cat. #CP72) (cynomolgus monkey, UniProt P23510 51-183 (human entry), limits assumed)
T4 construct: Bought protein; also called cynomolgus OX40L
T4 chain: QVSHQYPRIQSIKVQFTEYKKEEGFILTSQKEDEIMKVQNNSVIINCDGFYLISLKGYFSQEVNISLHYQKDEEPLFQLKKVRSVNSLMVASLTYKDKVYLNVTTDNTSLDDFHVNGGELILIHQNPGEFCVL


Legend:
[1] = biological target: T1, recombinant human OX40L protein (R&D …); experiment: cell-based or functional assay
AVI-GST-His6-hOX40L [2] = biological target: T2, AVI-GST-His6-hOX40L; experiment: cell-based or functional assay
[3] = biological target: T1, recombinant human OX40L protein (R&D …); experiment: SPR steady state, Biacore T200; OX40L immobilised on CM5, antibody in solution
Method: (§1) Recombinant OX40L proteins (human OX40L protein, R&D systems, cat. #1054-OX; cynomolgus monkey OX40L, Novoprotein cat. #CP72) were immobilized onto Biacore CM5 sensor chips and anti-OX40L antibodies were bound to this surface at a range of concentrations. The response at steady state was measured with a Biacore T200 instrument (GE Healthcare) and plotted against the concentration of antibody and fit to a 1:1 binding model. The steady state KD was determined as the antibody concentration at a response equal to half the maximal response (Rₘₐₓ).
Steady state affinity assay was performed as described in section 1.1.7 of Example 1.

mouse OX40L = biological target: T3, mouse OX40L; experiment: flow cytometry on CHO-S cells / ELISA on recombinant protein (sentence does not say which)
[4] = biological target: T4, recombinant cynomolgus monkey OX40L …; experiment: flow cytometry on CHO-S-OX40L cells / ELISA on recombinant OX40L (sentence does not say which)
[5] = biological target: T1, recombinant human OX40L protein (R&D …); experiment: cell-based or functional assay; remark: listed apart in the source
AVI-GST-His6-hOX40L [6] = biological target: T2, AVI-GST-His6-hOX40L; experiment: cell-based or functional assay; remark: listed apart in the source
AVI-GST-His6-hOX40L [7] = biological target: T2, AVI-GST-His6-hOX40L; experiment: cell-based or functional assay; remark: listed apart in the source
[8] = biological target: T1, recombinant human OX40L protein (R&D …); experiment: SPR steady state, Biacore T200; OX40L immobilised on CM5, FcFab in solution
Method: as §1
As with the IgG clones, binding affinity to human OX40L was determined for all twelve FcFabs using steady state affinity assay as described in section 1.1.7 of Example 1. […]

Binder	Primary T cell activation assay IC50 [1] [nM]	OX40L neutralization/OX40-HEK Reporter IC50 (AVI-GST-His6-hOX40L [2]) [nM]	Kd [3] [nM]	binding result (mouse OX40L)	binding result [4]	Primary T cell activation assay IC50 [5] [nM]	OX40L neutralization/OX40-HEK Reporter IC50 (AVI-GST-His6-hOX40L [6]) [nM]	IC50 (read off the curve) (AVI-GST-His6-hOX40L [7]) [nM]	Kd [8] [nM]
89B09 (IgG) (antibody) heavy: not shown light: SSELTQDPAVSVALGQTVRITCQGDSVRRFFAHWYQQKPGQAPILVISGKDTRPSGIPDRFSGSISGNTASLTITGAQAEDEADYYCNSRDSSGYLVLFGGGTKLTVLGQPKAAPSVTLFPPSSEELQANKATLVCLISDFYPGAVTVAWKADSSPVKAGVETTTPSKQSNNKYAASSYLSLTPEQWKSHKSYSCQVTHEGSTVEKTVAPTECS	10.7	4.4	31.6	no binding	binds				
84E11 (IgG) (antibody) heavy: not shown light: SSELTQDPAVSVALGQTVRITCQGDSLRNYFANWYQQKPGQAPVLVIYGKNNRPSGIPDRFSGSSSGNTASLTITGAQAEDEADYYCNSRDSSGYHVVFGGGTKLTVLGQPKAAPSVTLFPPSSEELQANKATLVCLISDFYPGAVTVAWKADSSPVKAGVETTTPSKQSNNKYAASSYLSLTPEQWKSHKSYSCQVTHEGSTVEKTVAPTECS	8.8	17.7	39.5	no binding	binds				
98E10 (IgG) (antibody) heavy: not shown light: SYELTQPLSVSVALGQTARITCGGNNIENKNVHWYQQMPGQAPVLVIYRDSNRPSGIPERFSGSNSGNTATLTINRAQAGDEADYYCQVWDSNTVVFGGGTKVTVLGQPKAAPSVTLFPPSSEELQANKATLVCLISDFYPGAVTVAWKADSSPVKAGVETTTPSKQSNNKYAASSYLSLTPEQWKSHKSYSCQVTHEGSTVEKTVAPTECS	8.8	5.4	32.8	no binding	binds				
30F02 (IgG) (antibody) heavy: not shown light: SYVLTQPLSVSVALGQTARITCGGNNIGDKNVHWYQQKPGQAPVLVISRDSNRPSGIPERFSGSNSGNTATLTISRAQAGDESDYYCQVWDSSTVVFGGGTKVTVLGQPKAAPSVTLFPPSSEELQANKATLVCLISDFYPGAVTVAWKADSSPVKAGVETTTPSKQSNNKYAASSYLSLTPEQWKSHKSYSCQVTHEGSTVEKTVAPTECS	12.4	72.7	53.9	no binding	binds				
97G07 (FcFab) (antibody, IgG1, also called 97G07(2); anti-OX40L FcFab antibody 97G07) heavy: EPKSSDKTHTCPPCPAPPVAGPSVFLFPPKPKDTLMISRTPEVTCVVVDVSHEDPEVKFNWYVDGVEVHNAKTKPREEQYNSTYRVVSVLTVLHQDWLNGKEYKCAVSNKALPSSIEKTISKAKGQPREPQVYTLPPSREEMTKNQVSLTCLVKGFYPSDIAVEWESNGQPENNYKTTPPVLDSDGSFFLYSKLTVDKSRWQQGNVFSCSVMHEALHNHYTQKSLSLSPGAGGGGSGGGGSGGGGSQLQLQESGPGLVKPSETLSLTCTVSGGSISSSSYYWGWIRQPPGKGLEWIGGIGSVDYSGNTYYKPSLKSRVTISVDTSKNQFSLKLSTVTAADTAVYHCARHRGIYFFDYWGQGTLVTVSSASTKGPSVFPLAPSSKSTSGGTAALGCLVKDYFPEPVTVSWNSGALTSGVHTFPAVLQSSGLYSLSSVVTVPSSSLGTQTYICNVNHKPSNTKVDKRVEPKSC light: YYELTQPLSVSVALGQTARIPCGGNNIENKNVHWYQQKPGQAPVLVIYRDSNRPSGIPERFSGSNSGNTATLSINRAQAGDEADYYCQVWDSNTVIFGGGTKVTVLGQPKAAPSVTLFPPSSEELQANKATLVCLISDFYPGAVTVAWKADSSPVKAGVETTTPSKQSNNKYAASSYLSLTPEQWKSHKSYSCQVTHEGSTVEKTVAPTECS						4.6	6.2	~6	27.9
85F10 (IgG) (antibody) heavy: not shown light: SYELTQPLSVSVALGQTARITCGGNNIENKNVHWYQQKPGQAPVLVIKRDSNRPSGIPERLSGSNSGNTATLTISRAQAGDEADYYCQVWDSSTVVFGGGTKLTVLGQPKAAPSVTLFPPSSEELQANKATLVCLISDFYPGAVTVAWKADSSPVKAGVETTTPSKQSNNKYAASSYLSLTPEQWKSHKSYSCQVTHEGSTVEKTVAPTECS		54.6	28.2	no binding	binds				
95B06 (IgG) (antibody) heavy: not shown light: DMQMTQSPSSLSASVGDRVTITCRASQGIRNDLDWYQQKPGKVPKRLIHAASSLQSGVPSRFSGSGSGTEFTLTISSLQPEDFVTYYCLQHNTYPWTFGQGTKLEIKRTVAAPSVFIFPPSDEQLKSGTASVVCLLNNFYPREAKVQWKVDNALQSGNSQESVTEQDSKDSTYSLSSTLTLSKADYEKHKVYACEVTHQGLSSPVTKSFNRGEC	7.4	3.7	42.4	no binding	binds				

Continued, values first:

Primary T cell activation assay IC50 [1] [nM]	OX40L neutralization/OX40-HEK Reporter IC50 (AVI-GST-His6-hOX40L [2]) [nM]	Kd [3] [nM]	binding result (mouse OX40L)	binding result [4]	Primary T cell activation assay IC50 [5] [nM]	OX40L neutralization/OX40-HEK Reporter IC50 (AVI-GST-His6-hOX40L [6]) [nM]	IC50 (read off the curve) (AVI-GST-His6-hOX40L [7]) [nM]	Kd [8] [nM]	Binder
12.9	3.6	17.7	no binding	binds					98C01 (IgG) (antibody) heavy: not shown light: SYELTQPPSVSVALGQTARITCGGNNIENKNVHWYQQKPGQAPVLVIYRDSNRPSGIPERFSGSNSGNTATLSINRAQAGDEADYYCQVWDSNTVVFGGGTKLTVLGQPKAAPSVTLFPPSSEELQANKATLVCLISDFYPGAVTVAWKADSSPVKAGVETTTPSKQSNNKYAASSYLSLTPEQWKSHKSYSCQVTHEGSTVEKTVAPTECS
18.8	5.7	25.8							68F03 (IgG) (antibody) heavy: not shown light: SFELTQPLSVSVALGQTARITCGGINIENKNVHYYQQKPGQAPVLVIYRDTNRPSGIPERFSGSNSGNTATLTISRAQAGDEADYYCQVWDSNTVIFGGGTKVTVLGQPKAAPSVTLFPPSSEELQANKATLVCLISDFYPGAVTVAWKADSSPVKAGVETTTPSKQSNNKYAASSYLSLTPEQWKSHKSYSCQVTHEGSTVEKTVAPTECS
28.5	18.9	23.2	no binding	binds					88B06 (IgG) (antibody) heavy: not shown light: SYELTQPLSVSVALGQTARISCGGNNIGRKNVHWYQQKPGQAPVLVIYGDSNRPSGIPERFSGSNSGNTATLTIGRAQAGDEADYYCQVWDSSTVFGGGTKLTVLGQPKAAPSVTLFPPSSEELQANKATLVCLISDFYPGAVTVAWKADSSPVKAGVETTTPSKQSNNKYAASSYLSLTPEQWKSHKSYSCQVTHEGSTVEKTVAPTECS
